Source: the supplement of paper PMC10724198
± gives the standard deviation of the averaged measurements.

Each sequence was assayed on Saccharomyces cerevisiae (assay: protein stability index of tFT-peptide fusion (C-terminal peptide) (PSI (0-1 scale)); higher = more stable (slower turnover)). Conditions: genetic background: wild type; temperature: 30 C.
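Note: PSI is a weighted mean of sequencing reads over stability bins, variants kept only with over 10 reads, mCherry proximal and sfGFP distal, peptide attached via GGGS linker.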

Sequence | protein stability index
RRRPNSSMYRVS | 0.658 ± 0.015
RRSAWCAALPGR | 0.704 ± 0.0089
RRSDTTQQSVSL | 0.623 ± 0.077
RRSHGLAGPKKG | 0.674 ± 0.05
RRSVQLQSALFI | 0.736 ± 0.069
RRVPPGTPCGTR | 0.708 ± 0.073
RRVTTSFWPLGS | 0.671 ± 0.067
RSARGQFRGISC | 0.739 ± 0.23
RSDGRWYAGGLG | 0.737 ± 0.018
RSDIANWFLCLS | 0.798 ± 0.037
RSDPLPKTSAAY | 0.644 ± 0.12
RSGFTSSPLRSG | 0.681 ± 0.034
RSGREFLLSSLI | 0.718 ± 0.084
RSGRSLVGREGG | 0.703 ± 0.059
RSIQNLQENIIR | 0.663 ± 0.073
RSLGLVGWGFWG | 0.762 ± 0.12
RSMLRVELSGVA | 0.562 ± 0.031
RSPAPPAPPHLP | 0.7068 ± 0.0012
RSPPPRAPPPSV | 0.645 ± 0.06
RSPPYRPPCLRP | 0.722 ± 0.02
RSRAYDSLPADQ | 0.682 ± 0.058
RSRVLALSCRSA | 0.641 ± 0.029
RSRYWRTHGKVN | 0.557 ± 0.028
RSSPAVPPSPRP | 0.6918 ± 0.0066
RSSPRCPPSPGH | 0.7247 ± 0.0018
RSSSGANLQTTL | 0.6517 ± 0.0031

Sequence | protein stability index
RSTLGLAPPQSG | 0.67 ± 0.029
RSTPPHAHRSPP | 0.716 ± 0.015
RSVPHPGGPSPC | 0.649 ± 0.037
RSVPLLFPSLFL | 0.72 ± 0.027
RSVQSATSHGYQ | 0.749 ± 0.15
RSYFGLACPSVS | 0.626 ± 0.03
RSYGVGYEGDKG | 0.719 ± 0.054
RTAEGRVRGRPR | 0.689 ± 0.067
RTASRSVSTTQN | 0.745 ± 0.024
RTGAPSGEACCA | 0.676 ± 0.026
RTGRTCADRPTP | 0.757 ± 0.043
RTGVTKYSETLI | 0.677 ± 0.091
RTIPSPDVRTRD | 0.77 ± 0.011
RTKTQGKKRRQN | 0.57 ± 0.032
RTPRGCSLAYRA | 0.72 ± 0.11
RTRKYEDKSARM | 0.688 ± 0.021
RTRRPSRTRSAS | 0.772 ± 0.072
RTTNHRLPQPPR | 0.632 ± 0.063
RVCPPPLRRLLS | 0.693 ± 0.081
RVGERVEGGGVV | 0.6085 ± 0.0034
RVGGVVRGERAR | 0.671 ± 0.01
RVGSRRGVVCLL | 0.7526 ± 0.0014
RVGWCGGWRGGR | 0.677 ± 0.059
RVHEMSLGPIRL | 0.715 ± 0.036
RVHSRSYNVMLD | 0.6988 ± 0.00049
RVIEWHEEKLRV | 0.783 ± 0.017

Sequence | protein stability index
RVKNVDAVKKHK | 0.635 ± 0.0088
RVLSVRFRIGRE | 0.636 ± 0.061
RVPLHSSTVFWL | 0.7 ± 0.04
RVPPAIPSRRAC | 0.682 ± 0.06
RVPRYEKIVSSI | 0.658 ± 0.013
RVRRWGSSTLVG | 0.676 ± 0.041
RVRWRSQRSMVV | 0.689 ± 0.025
RVSGSFSCVCES | 0.6814 ± 0.0054
RVSIDIMNALGR | 0.627 ± 0.033
RVSPWSDLSAFL | 0.745 ± 0.045
RVVGGRDVRGGG | 0.737 ± 0.049
RWFQSSDVVDRQ | 0.703 ± 0.086
RWGGWGYRGGVP | 0.752 ± 0.062
RWRECVVWGVWG | 0.663 ± 0.0096
RWRRGGRRAPWP | 0.62 ± 0.012
RWSCLADQSANR | 0.7052 ± 0.0051
RWWRLRSGGGRR | 0.707 ± 0.017
RYHLHFIGDVGF | 0.6974 ± 0.0042
SAGPNCVWSSYN | 0.732 ± 0.0098
SAIGVGGVGTGG | 0.633 ± 0.039
SALFLVPRASWL | 0.659 ± 0.036
SALTSLAFGSFE | 0.704 ± 0.046
SAPPLPPPPPPP | 0.682 ± 0.016
SAPSAAPPRSHP | 0.708 ± 0.025
SAPVPPSPPRPR | 0.8 ± 0.0089
SAPYLSTTLSVK | 0.671 ± 0.011

Sequence | protein stability index
SAQGPVLFSTGP | 0.716 ± 0.044
SARFALSQAPPI | 0.814 ± 0.12
SARSAARRWVRR | 0.694 ± 0.026
SASGARVEARMH | 0.6435 ± 0.0017
SASLPSPCPDFG | 0.6703 ± 0.0021
SASSAHLDGACR | 0.691 ± 0.0075
SASSFGTLYCYS | 0.6966 ± 0.0019
SASVARSRRCVR | 0.612 ± 0.057
SASVLPSPLPPV | 0.708 ± 0.028
SATLRCASLSFC | 0.679 ± 0.014
SATWQLPGYFLI | 0.681 ± 0.04
SCFCNFFRFCCI | 0.637 ± 0.029
SCFFFSWIRGFC | 0.598 ± 0.032
SCFRTLPGRWPF | 0.793 ± 0.022
SCLSLSGLPSPL | 0.677 ± 0.062
SCSGTIGVYENP | 0.684 ± 0.024
SCSVAIFLLSSP | 0.6848 ± 0.0025
SCTPPLPFFTSF | 0.704 ± 0.028
SCVSDAKMGGLG | 0.655 ± 0.084
SCVWVPGCGPSR | 0.679 ± 0.0072
SDDGIRLLNQSF | 0.59 ± 0.095
SDVHGLSLSDVS | 0.632 ± 0.085
SEAGSVMPIGLV | 0.642 ± 0.082
SEIKKNKLTVMK | 0.677 ± 0.016
SEPPPPTPPPLP | 0.679 ± 0.18
SERKRMQRRVVY | 0.655 ± 0.021

Sequence | protein stability index
SERVCHESCLVG | 0.68 ± 0.047
SESKMRKVEPKM | 0.7459 ± 0.00085
SEVGLSFGLVSF | 0.719 ± 0.032
SEYHGRAQKTGP | 0.744 ± 0.034
SFAHIVSLPVSM | 0.657 ± 0.037
SFAQANRYLTSL | 0.699 ± 0.012
SFATPCCYPLHF | 0.713 ± 0.037
SFCACDRYRIGV | 0.727 ± 0.038
SFGGRMSVPTCC | 0.594 ± 0.035
SFGSAANSRAYI | 0.749 ± 0.042
SFITFGGWLGGM | 0.705 ± 0.14
SFLGLDDEICLR | 0.716 ± 0.044
SFLISPFSLFSS | 0.771 ± 0.051
SFLPHALPATAS | 0.682 ± 0.07
SFPFSCSSSVTH | 0.72 ± 0.055
SFPPVSSLSFSP | 0.707 ± 0.048
SFSAFRCDPAEM | 0.676 ± 0.011
SFSLPLSPPSFF | 0.721 ± 0.058
SFSPSVLSREVS | 0.66 ± 0.066
SFSQTFSSLSSP | 0.702 ± 0.054
SFVGPFCLTLSI | 0.596 ± 0.092
SFVQLNGAVDLA | 0.717 ± 0.031
SGAADGDADRHP | 0.721 ± 0.029
SGAGGGGWWGGV | 0.731 ± 0.011
SGAGVNWGVGGG | 0.728 ± 0.019
SGATVGVLCFAS | 0.58 ± 0.006

Sequence | protein stability index
SGCCCGSDVYIG | 0.6905 ± 0.0055
SGCVLCLCCYMV | 0.666 ± 0.015
SGCWREVEVGFG | 0.737 ± 0.059
SGFLAKNIKQLC | 0.578 ± 0.042
SGFQAPGSVASE | 0.623 ± 0.014
SGFQIRVPVFMG | 0.619 ± 0.0095
SGFVQRLHVICN | 0.5706 ± 0.0011
SGGCVLRLWGFV | 0.6853 ± 0.0019
SGHRLGRGQGQR | 0.67 ± 0.02
SGIYQTTSYIKI | 0.7505 ± 0.0029
SGLFPLSPKPCP | 0.619 ± 0.11
SGLGRETHGSYS | 0.66 ± 0.012
SGMGGCRKGFEG | 0.717 ± 0.011
SGPRVCPGMHWQ | 0.651 ± 0.013
SGPYPVGKQRSE | 0.649 ± 0.05
SGRGWILCAYRV | 0.632 ± 0.024
SGRSGECEGSWD | 0.662 ± 0.13
SGRTQPRGKHNA | 0.683 ± 0.016
SGRVELGVVGGG | 0.695 ± 0.04
SGSCPSSTSATT | 0.732 ± 0.057
SGSGVLVGCLGS | 0.68 ± 0.038
SGSVALWVCSVV | 0.5878 ± 0.0056
SGTVRSTPPHPP | 0.664 ± 0.0072
SGVAAPVRPRSV | 0.854 ± 0.11
SGVAYAVYLVFR | 0.472 ± 0.047
SGVFARIKRTVV | 0.489 ± 0.072

Sequence | protein stability index
SGVGCLVFGRGF | 0.645 ± 0.046
SGVGPGNPPRPG | 0.689 ± 0.011
SGVPGGSVGVPG | 0.661 ± 0.028
SGVVSASFVVLD | 0.677 ± 0.01
SGWEVAGGCDNK | 0.692 ± 0.0021
SGWRCSVAVLQV | 0.592 ± 0.033
SGYYTRVFICEV | 0.618 ± 0.025
SHESRPNLGCIY | 0.678 ± 0.026
SHFPPPSTPPVL | 0.713 ± 0.015
SHLPPRSPPVPS | 0.6825 ± 0.0051
SHPPPPPSPPPR | 0.6922 ± 0.0051
SICSIRPFSDLP | 0.683 ± 0.015
SIGYDLFTKDKI | 0.789 ± 0.13
SIIRYNKSATIT | 0.667 ± 0.047
SIIYKRKKGRRW | 0.714 ± 0.039
SILTALGEVLLV | 0.665 ± 0.013
SILVAGVSAGRC | 0.669 ± 0.021
SIMSVLPYCSCS | 0.708 ± 0.06
SIQCHNTKKFYE | 0.715 ± 0.032
SISSVFCTGRCH | 0.721 ± 0.19
SIVAWGWPAASE | 0.85 ± 0.19
SIVIGGSWGRSW | 0.711 ± 0.052
SIVSQGISDLGR | 0.656 ± 0.046
SIYIEKERKMIV | 0.686 ± 0.025
SKGECYSETDVA | 0.684 ± 0.018
SKKNKPAQRRPH | 0.729 ± 0.026

Sequence | protein stability index
SKKRKEKRTKEW | 0.63 ± 0.083
SKLEREKQNKGY | 0.634 ± 0.021
SKLRKGNSIDDR | 0.625 ± 0.016
SKREYGKEYKRK | 0.656 ± 0.0084
SKSCIVSNVLVY | 0.511 ± 0.014
SKTIRDTYIFKR | 0.816 ± 0.15
SLASCLLRPPLY | 0.693 ± 0.021
SLASYFFHVSHS | 0.7127 ± 0.0064
SLCLPFPSSPPP | 0.677 ± 0.0083
SLDGTVHARRAH | 0.695 ± 0.07
SLDISDCGFCLH | 0.697 ± 0.018
SLDRASPPTSVA | 0.625 ± 0.0007
SLFFGDCNLVRV | 0.7166 ± 0.0036
SLFPPAPPPPRS | 0.641 ± 0.098
SLFRSSHPPRPP | 0.605 ± 0.034
SLFSFSLSLCSP | 0.653 ± 0.06
SLFYSPSSVFSF | 0.866 ± 0.13
SLGCLLENRRGL | 0.641 ± 0.015
SLGGFLPPESFV | 0.708 ± 0.049
SLGSRFWGPYPF | 0.679 ± 0.029
